A short description of series [1]: Detection of test substance in rat plasma by LC-MS/MS (Test Example 3). Type of series: in vivo. The note with it: rat plasma, 100 nmol/kg i.v., LC-MS/MS; time at which the test substance was finally detected. How it is done:
Before the administration and 15, 30, 60, 90, 120, 180, and 240 minutes after the administration, blood was sampled (200 μL/sampling) over time from the jugular vein. The blood samples were immediately left on ice.
The collected blood samples were centrifuged at 5000 rpm at 4° C. for 5 minutes by use of a centrifuge (Sigma 4K15, rotor: Nr12130-H). The separated plasma samples were divided into two types (samples for PK measurement and for cGMP measurement) and stored at −80° C. until measurement.
An internal standard (20 μL (500 nM) of a stable isotope of hANP) and an acetic acid mixed solvent (AcOH/distilled water/DMSO=5/3/2, v/v/v) were added to 50 μL of each rat plasma sample prepared in (1) and then mixed therewith. The mixture was transferred to Amicon Ultra-0.5 50K (Millipore Corp., MA) and centrifuged at 14000 rpm at 15° C. for 30 minutes. The obtained filtrate was transferred to Amicon Ultra-0.5 3K (Millipore Corp., MA) and centrifuged again under the aforementioned conditions. The solution remaining on the filter was recovered and transferred to a 96-well deep well plate. The content of the test substance was measured by LC-MS/MS (LC: Shimadzu LC-10ADVP (Shimadzu Corp.), MS/MS: API 4000 QTrap (AB SCIEX)) to calculate the concentration in plasma. The time at which the test substance was finally detected is shown in the rightmost column of Table 2.

In another series the target is T1, human GC-A (Homo sapiens, UniProt P16066).
T1 construct: expressed in transfected cells; host or cells: CHO cells
T1 sequence (P16066 33-1061): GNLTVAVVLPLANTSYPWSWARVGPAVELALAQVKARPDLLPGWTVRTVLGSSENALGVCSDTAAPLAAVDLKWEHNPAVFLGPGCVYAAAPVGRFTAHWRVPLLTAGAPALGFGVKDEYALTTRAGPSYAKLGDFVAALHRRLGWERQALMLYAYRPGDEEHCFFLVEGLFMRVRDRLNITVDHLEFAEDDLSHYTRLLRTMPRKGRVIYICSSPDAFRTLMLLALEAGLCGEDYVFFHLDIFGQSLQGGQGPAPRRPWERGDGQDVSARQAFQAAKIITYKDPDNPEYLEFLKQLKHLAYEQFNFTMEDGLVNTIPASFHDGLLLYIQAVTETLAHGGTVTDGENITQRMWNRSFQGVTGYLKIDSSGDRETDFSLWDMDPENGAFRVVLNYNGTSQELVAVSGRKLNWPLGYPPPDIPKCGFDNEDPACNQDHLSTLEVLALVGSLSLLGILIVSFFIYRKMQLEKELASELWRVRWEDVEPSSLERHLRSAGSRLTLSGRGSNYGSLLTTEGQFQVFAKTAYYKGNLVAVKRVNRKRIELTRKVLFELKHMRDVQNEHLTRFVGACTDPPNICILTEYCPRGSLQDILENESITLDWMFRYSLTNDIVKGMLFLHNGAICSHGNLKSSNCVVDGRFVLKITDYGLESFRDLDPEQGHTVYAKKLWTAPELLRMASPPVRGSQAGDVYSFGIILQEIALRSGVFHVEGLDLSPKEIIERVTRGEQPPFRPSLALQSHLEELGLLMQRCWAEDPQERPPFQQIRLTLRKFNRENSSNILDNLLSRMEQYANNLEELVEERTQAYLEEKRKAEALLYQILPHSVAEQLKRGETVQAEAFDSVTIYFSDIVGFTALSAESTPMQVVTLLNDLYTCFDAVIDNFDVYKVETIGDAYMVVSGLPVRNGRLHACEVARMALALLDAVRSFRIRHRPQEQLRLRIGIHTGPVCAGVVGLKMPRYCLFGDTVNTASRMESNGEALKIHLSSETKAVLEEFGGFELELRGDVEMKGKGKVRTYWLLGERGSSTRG
The experiment in a line: cGMP elevating activity in CHO/human GC-A cells (Test Example 1). In kind it is cell-based. Summed up: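 CHO cells stably expressing human GC-A, pre-incubated 10 min at room temperature in 1.6 mM IBMX/KRB, then exposed to test peptide 15 min in CO2 incubator. Lysate cGMP measured by HTRF. Activity (T/C) scaled so solvent-only = 0 and 1 nM ANP = 1.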

Usually EC50 stands for the concentration giving half of the maximal effect.

Consider `CC[C@H](C)[C@@H]1NC(=O)[C@H](CCCNC(=N)N)NC(=O)[C@H](CC(=O)O)NC(=O)[C@H](CCSC)NC(=O)[C@H](CCCNC(=N)N)NC(=O)CNC(=O)CNC(=O)[C@H](Cc2ccccc2)NC(=O)[C@@H](NC(=O)[C@H](CO)NC(=O)[C@H](CO)NC(=O)[C@H](CCCNC(=N)N)NC(=O)[C@H](CCCNC(=N)N)NC(=O)[C@H](CC(C)C)NC(=O)[C@H](CO)NC(=O)[C@H](CC(=O)N[C@@H]2O[C@H](CO)[C@@H](O[C@@H]3O[C@H](CO)[C@@H](O[C@@H]4O[C@H](CO[C@H]5O[C@H](CO)[C@@H](O)[C@H](O)[C@@H]5O[C@@H]5O[C@H](CO)[C@@H](O[C@@H]6O[C@H](CO[C@]7(C(=O)O)C[C@H](O)[C@@H](NC(C)=O)[C@H]([C@H](O)[C@H](O)CO)O7)[C@H](O)[C@H](O)[C@H]6O)[C@H](O)[C@H]5NC(C)=O)[C@@H](O)[C@H](O[C@H]5O[C@H](CO)[C@@H](O)[C@H](O)[C@@H]5O[C@@H]5O[C@H](CO)[C@@H](O[C@@H]6O[C@H](CO[C@]7(C(=O)O)C[C@H](O)[C@@H](NC(C)=O)[C@H]([C@H](O)[C@H](O)CO)O7)[C@H](O)[C@H](O)[C@H]6O)[C@H](O)[C@H]5NC(C)=O)[C@@H]4O)[C@H](O)[C@H]3NC(C)=O)[C@H](O)[C@H]2NC(C)=O)NC(=O)CCOCCOCCOCCOCCNC(=O)CO[C@@H]2O[C@H](CO)[C@@H](O[C@@H]3O[C@H](CO)[C@@H](O[C@@H]4O[C@H](CO[C@H]5O[C@H](CO)[C@@H](O)[C@H](O)[C@@H]5O[C@@H]5O[C@H](CO)[C@@H](O[C@@H]6O[C@H](CO[C@]7(C(=O)O)C[C@H](O)[C@@H](NC(C)=O)[C@H]([C@H](O)[C@H](O)CO)O7)[C@H](O)[C@H](O)[C@H]6O)[C@H](O)[C@H]5NC(C)=O)[C@@H](O)[C@H](O[C@H]5O[C@H](CO)[C@@H](O)[C@H](O)[C@@H]5O[C@@H]5O[C@H](CO)[C@@H](O[C@@H]6O[C@H](CO[C@]7(C(=O)O)C[C@H](O)[C@@H](NC(C)=O)[C@H]([C@H](O)[C@H](O)CO)O7)[C@H](O)[C@H](O)[C@H]6O)[C@H](O)[C@H]5NC(C)=O)[C@@H]4O)[C@H](O)[C@H]3NC(C)=O)[C@H](O)[C@H]2NC(C)=O)CSSC[C@@H](C(=O)N[C@@H](CC(N)=O)C(=O)N[C@@H](CO)C(=O)N[C@@H](Cc2ccccc2)C(=O)N[C@@H](CCCNC(=N)N)C(=O)N[C@@H](Cc2ccc(O)cc2)C(=O)O)NC(=O)CNC(=O)[C@H](CC(C)C)NC(=O)CNC(=O)[C@H](CO)NC(=O)[C@H](CCC(N)=O)NC(=O)[C@H](C)NC(=O)CNC1=O` [Compound 2-16, SG-PEG(3)-(SG-)Asn-hANP(1-28)], for which, in series [1], the “Maximum time of detection after administration” value turned out to be 2 h. Besides, the EC50 on human GC-A is 0.98 nM.
Taken in the same sequence, the figures for `CC[C@H](C)[C@@H]1NC(=O)[C@H](CCCNC(=N)N)NC(=O)[C@H](CC(=O)O)NC(=O)[C@H](CCSC)NC(=O)[C@H](CCCNC(=N)N)NC(=O)CNC(=O)CNC(=O)[C@H](Cc2ccccc2)NC(=O)[C@@H](NC(=O)[C@H](CO)NC(=O)[C@H](CO)NC(=O)[C@H](CCCNC(=N)N)NC(=O)[C@H](CCCNC(=N)N)NC(=O)[C@H](CC(C)C)NC(=O)[C@H](CO)NC(=O)CCOCCOCCOCCOCCNC(=O)[C@H](CC(=O)N[C@@H]2O[C@H](CO)[C@@H](O[C@@H]3O[C@H](CO)[C@@H](O[C@@H]4O[C@H](CO[C@H]5O[C@H](CO)[C@@H](O)[C@H](O)[C@@H]5O[C@@H]5O[C@H](CO)[C@@H](O[C@@H]6O[C@H](CO[C@]7(C(=O)O)C[C@H](O)[C@@H](NC(C)=O)[C@H]([C@H](O)[C@H](O)CO)O7)[C@H](O)[C@H](O)[C@H]6O)[C@H](O)[C@H]5NC(C)=O)[C@@H](O)[C@H](O[C@H]5O[C@H](CO)[C@@H](O)[C@H](O)[C@@H]5O[C@@H]5O[C@H](CO)[C@@H](O[C@@H]6O[C@H](CO[C@]7(C(=O)O)C[C@H](O)[C@@H](NC(C)=O)[C@H]([C@H](O)[C@H](O)CO)O7)[C@H](O)[C@H](O)[C@H]6O)[C@H](O)[C@H]5NC(C)=O)[C@@H]4O)[C@H](O)[C@H]3NC(C)=O)[C@H](O)[C@H]2NC(C)=O)NC(=O)CO[C@@H]2O[C@H](CO)[C@@H](O[C@@H]3O[C@H](CO)[C@@H](O[C@@H]4O[C@H](CO[C@H]5O[C@H](CO)[C@@H](O)[C@H](O)[C@@H]5O[C@@H]5O[C@H](CO)[C@@H](O[C@@H]6O[C@H](CO[C@]7(C(=O)O)C[C@H](O)[C@@H](NC(C)=O)[C@H]([C@H](O)[C@H](O)CO)O7)[C@H](O)[C@H](O)[C@H]6O)[C@H](O)[C@H]5NC(C)=O)[C@@H](O)[C@H](O[C@H]5O[C@H](CO)[C@@H](O)[C@H](O)[C@@H]5O[C@@H]5O[C@H](CO)[C@@H](O[C@@H]6O[C@H](CO[C@]7(C(=O)O)C[C@H](O)[C@@H](NC(C)=O)[C@H]([C@H](O)[C@H](O)CO)O7)[C@H](O)[C@H](O)[C@H]6O)[C@H](O)[C@H]5NC(C)=O)[C@@H]4O)[C@H](O)[C@H]3NC(C)=O)[C@H](O)[C@H]2NC(C)=O)CSSC[C@@H](C(=O)N[C@@H](CC(N)=O)C(=O)N[C@@H](CO)C(=O)N[C@@H](Cc2ccccc2)C(=O)N[C@@H](CCCNC(=N)N)C(=O)N[C@@H](Cc2ccc(O)cc2)C(=O)O)NC(=O)CNC(=O)[C@H](CC(C)C)NC(=O)CNC(=O)[C@H](CO)NC(=O)[C@H](CCC(N)=O)NC(=O)[C@H](C)NC(=O)CNC1=O` [Compound 2-13, SG-(SG-)Asn-PEG(3)-hANP(1-28)] were 3 h and 0.34 nM.
Regarding `CC[C@H](C)[C@@H]1NC(=O)[C@H](CCCNC(=N)N)NC(=O)[C@H](CC(=O)O)NC(=O)[C@H](CCSC)NC(=O)[C@H](CCCNC(=N)N)NC(=O)CNC(=O)CNC(=O)[C@H](Cc2ccccc2)NC(=O)[C@@H](NC(=O)[C@H](CO)NC(=O)[C@H](CO)NC(=O)[C@H](CCCNC(=N)N)NC(=O)[C@H](CCCNC(=N)N)NC(=O)[C@H](CC(C)C)NC(=O)[C@H](CO)NC(=O)CCSCC(=O)NCCO[C@@H]2O[C@H](CO)[C@@H](O[C@@H]3O[C@H](CO)[C@@H](O[C@@H]4O[C@H](CO[C@H]5O[C@H](CO)[C@@H](O)[C@H](O)[C@@H]5O[C@@H]5O[C@H](CO)[C@@H](O[C@@H]6O[C@H](CO[C@]7(C(=O)O)C[C@H](O)[C@@H](NC(C)=O)[C@H]([C@H](O)[C@H](O)CO)O7)[C@H](O)[C@H](O)[C@H]6O)[C@H](O)[C@H]5NC(C)=O)[C@@H](O)[C@H](O[C@H]5O[C@H](CO)[C@@H](O)[C@H](O)[C@@H]5O[C@@H]5O[C@H](CO)[C@@H](O[C@@H]6O[C@H](CO[C@]7(C(=O)O)C[C@H](O)[C@@H](NC(C)=O)[C@H]([C@H](O)[C@H](O)CO)O7)[C@H](O)[C@H](O)[C@H]6O)[C@H](O)[C@H]5NC(C)=O)[C@@H]4O)[C@H](O)[C@H]3NC(C)=O)[C@H](O)[C@H]2NC(C)=O)CSSC[C@@H](C(=O)N[C@@H](CC(N)=O)C(=O)N[C@@H](CO)C(=O)N[C@@H](Cc2ccccc2)C(=O)N[C@@H](CCCNC(=N)N)C(=O)N[C@@H](Cc2ccc(O)cc2)C(=O)O)NC(=O)CNC(=O)[C@H](CC(C)C)NC(=O)CNC(=O)[C@H](CO)NC(=O)[C@H](CCC(N)=O)NC(=O)[C@H](C)NC(=O)CNC1=O` [Compound 2-25, SG-thioacetamide-hANP(1-28)], the “Maximum time of detection after administration” value in series [1] was found to be 2 h. Moreover, at human GC-A, the response was half-maximal at 0.054 nM (EC50).

Values taken from patent US10947289B2, “Glyco-modified atrial natriuretic peptide” (priority 2013, dated 2021).
